Measurements as given in publication PMC6426935.

How the values were obtained:
[1] = molecular target: recombinant Der f 21 with N-terminal 6x-His-tag (Dermatophagoides farinae) (UniProt B2GM84); experiment: SEC-MALS; Superdex S75 increase, 20 mM Tris pH 7.9, 50 mM NaCl; 100 uL loaded at 5 mg/mL
[2] = molecular target: recombinant Der f 21 with the His-tag cleaved (Dermatophagoides farinae) (UniProt B2GM84); experiment: static light scattering; crDer f 21 at 0.25, 1.00 and 1.50 mg/mL

stoichiometry N [1] | stoichiometry N [2] | Substance
2 | – | recombinant Der f 21 with N-terminal 6x-His-tag (from UniProt B2GM84 25-136) (natural protein)
– | 2 | recombinant Der f 21 with the His-tag cleaved (from UniProt B2GM84 25-136) (natural protein)
